# In paper PMC2759774 (Molecular microbiology, 2009):
# T1: MinD (E. coli, UniProt P0AEZ3 1-270)
# T1 sequence (looked up): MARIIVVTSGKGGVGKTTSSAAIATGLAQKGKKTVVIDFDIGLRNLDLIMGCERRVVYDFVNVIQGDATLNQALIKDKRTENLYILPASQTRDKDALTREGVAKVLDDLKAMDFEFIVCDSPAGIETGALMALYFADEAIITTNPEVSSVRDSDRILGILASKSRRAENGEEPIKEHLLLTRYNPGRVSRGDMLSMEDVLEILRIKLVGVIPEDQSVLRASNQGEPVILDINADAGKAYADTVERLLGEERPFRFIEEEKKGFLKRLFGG
# T2: MinC^C/MinD complex (MalE-MinC^C with MinD on phospholipid vesicles) (E. coli, UniProt P18196 116-231; P0AEZ3 1-270)
# T2 sequence (looked up) 1: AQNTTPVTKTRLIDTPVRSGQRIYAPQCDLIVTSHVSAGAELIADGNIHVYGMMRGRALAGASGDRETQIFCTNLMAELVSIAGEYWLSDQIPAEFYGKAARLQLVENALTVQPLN
# T2 sequence (looked up) 2: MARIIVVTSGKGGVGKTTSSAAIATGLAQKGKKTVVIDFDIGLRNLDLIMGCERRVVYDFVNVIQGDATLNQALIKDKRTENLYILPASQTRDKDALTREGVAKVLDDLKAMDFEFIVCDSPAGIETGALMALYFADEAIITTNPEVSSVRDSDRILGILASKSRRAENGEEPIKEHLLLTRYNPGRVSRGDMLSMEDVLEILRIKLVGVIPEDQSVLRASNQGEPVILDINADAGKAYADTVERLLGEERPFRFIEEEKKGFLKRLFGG
# Key:
# MinD = biological target: T1, MinD; test: co-sedimentation
# [1] = biological target: T2, MinC^C/MinD complex (MalE-MinC^C with …); test: co-sedimentation
Binder,binding result (MinD),binding result [1]
"MalE-MinC^C (domain or fragment, E. coli, UniProt P18196 116-231, looked up) AQNTTPVTKTRLIDTPVRSGQRIYAPQCDLIVTSHVSAGAELIADGNIHVYGMMRGRALAGASGDRETQIFCTNLMAELVSIAGEYWLSDQIPAEFYGKAARLQLVENALTVQPLN",binds,–
"WT FtsZ (natural protein, E. coli, UniProt P0A9A6 1-383, looked up) MFEPMELTNDAVIKVIGVGGGGGNAVEHMVRERIEGVEFFAVNTDAQALRKTAVGQTIQIGSGITKGLGAGANPEVGRNAADEDRDALRAALEGADMVFIAAGMGGGTGTGAAPVVAEVAKDLGILTVAVVTKPFNFEGKKRMAFAEQGITELSKHVDSLITIPNDKLLKVLGRGISLLDAFGAANDVLKGAVQGIAELITRPGLMNVDFADVRTVMSEMGYAMMGSGVASGEDRAEEAAEMAISSPLLEDIDLSGARGVLVNITAGFDLRLDEFETVGNTIRAFASDNATVVIGTSLDPDMNDELRVTVVATGIGMDKRPEITLVTNKQVQQPVMDRYQQHGMAPLTQEQKPVAKVVNDNAPQTAKEPDYLDIPAFLRKQAD",–,binds
